The values below come from IntAct's records for PubMed 11238952.

B1: Cyclic AMP-dependent transcription factor ATF-4 (Homo sapiens), P18848 (parent)
chain: MTEMSFLSSEVLVGDLMSPFDQSGLGAEESLGLLDDYLEVAKHFKPHGFSSDKAKAGSSEWLAVDGLVSPSNNSKEDAFSGTDWMLEKMDLKEFDLDALLGIDDLETMPDDLLTTLDDTCDLFAPLVQETNKQPPQTVNPIGHLPESLTKPDQVAPFTFLQPLPLSPGVLSSTPDHSFSLELGSEVDITEGDRKPDYTAYVAMIPQCIKEEDTPSDNDSGICMSPESYLGSPQHSPSTRGSPNRSLPSPGVLCGSARPKPYDPPGEKMVAAKVKGEKLDKKLKKMEQNKTAATRYRQKKRAEQEALTGECKELEKKNEALKERADSLAKEIQYLKDLIEEVRKARGKKRVP

Variants of B1 are the subject of the first test. The note with it: with BTRC.
For the variant MTEMSFLSSEVLVGDLMSPFDQSGLGAEESLGLLDDYLEVAKHFKPHGFSSDKAKAGSSEWLAVDGLVSPSNNSKEDAFSGTDWMLEKMDLKEFDLDALLGIDDLETMPDDLLTTLDDTCDLFAPLVQETNKQPPQTVNPIGHLPESLTKPDQVAPFTFLQPLPLSPGVLSSTPDHSFSLELGSEVDITEGDRKPDYTAYVAMIPQCIKEEDTPSDNDNGICMSPESYLGSPQHSPSTRGSPNRSLPSPGVLCGSARPKPYDPPGEKMVAAKVKGEKLDKKLKKMEQNKTAATRYRQKKRAEQEALTGECKELEKKNEALKERADSLAKEIQYLKDLIEEVRKARGKKRVP [S219N], the “effect of a mutation on the interaction” value is given as “decreasing interaction”.
For MTEMSFLSSEVLVGDLMSPFDQSGLGAEESLGLLDDYLEVAKHFKPHGFSSDKAKAGSSEWLAVDGLVSPSNNSKEDAFSGTDWMLEKMDLKEFDLDALLGIDDLETMPDDLLTTLDDTCDLFAPLVQETNKQPPQTVNPIGHLPESLTKPDQVAPFTFLQPLPLSPGVLSSTPDHSFSLELGSEVDITEGDRKPDYTAYVAMIPQCIKEEDTPSDNNSGICMSPESYLGSPQHSPSTRGSPNRSLPSPGVLCGSARPKPYDPPGEKMVAAKVKGEKLDKKLKKMEQNKTAATRYRQKKRAEQEALTGECKELEKKNEALKERADSLAKEIQYLKDLIEEVRKARGKKRVP [D218N], the “effect of a mutation on the interaction” value is listed as “decreasing interaction”.

The variants in another test derive from B1. The note with it: with BTRC. The source holds these as a separate data set.
MTEMSFLSSEVLVGDLMSPFDQSGLGAEESLGLLDDYLEVAKHFKPHGFSSDKAKAGSSEWLAVDGLVSPSNNSKEDAFSGTDWMLEKMDLKEFDLDALLGIDDLETMPDDLLTTLDDTCDLFAPLVQETNKQPPQTVNPIGHLPESLTKPDQVAPFTFLQPLPLSPGVLSSTPDHSFSLELGSEVDITEGDRKPDYTAYVAMIPQCIKEEDTPSDNDNGICMSPESYLGSPQHSPSTRGSPNRSLPSPGVLCGSARPKPYDPPGEKMVAAKVKGEKLDKKLKKMEQNKTAATRYRQKKRAEQEALTGECKELEKKNEALKERADSLAKEIQYLKDLIEEVRKARGKKRVP [S219N]: the “effect of a mutation on the interaction” value is “disrupting interaction”.
